Results taken from article PMC6856053 (Frontiers in Neuroscience, 2019).
Numbering of substitutions follows the chain as printed.

What was measured:
Assay in all cases: pull-down; GST-MIT domain (bait) and myc-6His MIM (prey), 2 nmole each, on 20 ul glutathione sepharose in 1 ml PBS + 0.1% NP-40 + 1 mM DTT, overnight 4 C; Coomassie and anti-myc blot
Settings in all cases: both partners purified
[1] = target: T1, GST fused to the spastin MIT domain (residues 110-199) E112K (human, UniProt Q9UBP0 110-199, E112K)
T1 construct: spastin, residues 110-199 holding the MIT domain; patient mutation; Cloned into the BamHI-XhoI sites of pGEX-4T2; source: E. coli BL21(DE3)pLysS, purified (GST sepharose, eluted with 10 mM glutathione)
T1 sequence (looked up): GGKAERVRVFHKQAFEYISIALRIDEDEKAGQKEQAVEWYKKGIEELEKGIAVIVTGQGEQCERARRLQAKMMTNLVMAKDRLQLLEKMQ

[2] = target: T2, GST fused to the spastin MIT domain (residues 110-199) R115C (human, UniProt Q9UBP0 110-199, R115C)
T2 construct: spastin, residues 110-199 holding the MIT domain; patient mutation (SPAST c.343C>T); Cloned into the BamHI-XhoI sites of pGEX-4T2; source: E. coli BL21(DE3)pLysS, purified (GST sepharose, eluted with 10 mM glutathione)
T2 sequence (looked up): T1 sequence (looked up) with K3E, R6C

[3] = target: T3, GST fused to the spastin MIT domain (residues 110-199) V162I (human, UniProt Q9UBP0 110-199, V162I)
T3 construct: spastin, residues 110-199 holding the MIT domain; benign polymorphism; Cloned into the BamHI-XhoI sites of pGEX-4T2; also called MIT containing the benign polymorphism V162I; source: E. coli BL21(DE3)pLysS, purified (GST sepharose, eluted with 10 mM glutathione)
T3 sequence (looked up): T1 sequence (looked up) with K3E, V53I

[4] = target: T4, GST fused to the spastin MIT domain (residues 110-199) N184T (human, UniProt Q9UBP0 110-199, N184T)
T4 construct: spastin, residues 110-199 holding the MIT domain; patient mutation; Cloned into the BamHI-XhoI sites of pGEX-4T2; source: E. coli BL21(DE3)pLysS, purified (GST sepharose, eluted with 10 mM glutathione)
T4 sequence (looked up): T1 sequence (looked up) with K3E, N75T

[5] = target: T5, GST fused to the spastin MIT domain (residues 110-199) L195V (human, UniProt Q9UBP0 110-199, L195V)
T5 construct: spastin, residues 110-199 holding the MIT domain; patient mutation; Cloned into the BamHI-XhoI sites of pGEX-4T2; source: E. coli BL21(DE3)pLysS, purified (GST sepharose, eluted with 10 mM glutathione)
T5 sequence (looked up): T1 sequence (looked up) with K3E, L86V

[6] = target: T6, GST fused to the wild-type spastin MIT domain (residues 110-199) (human, UniProt Q9UBP0 110-199)
T6 construct: spastin, residues 110-199 holding the MIT domain; Cloned into the BamHI-XhoI sites of pGEX-4T2; also called WT; source: E. coli BL21(DE3)pLysS, purified (GST sepharose, eluted with 10 mM glutathione)
T6 sequence (looked up): T1 sequence (looked up) with K3E

Measured: binding result

B1: single MIM of CHMP1B, residues 174-199, myc- and 6His-tagged (domain or fragment, UniProt Q7LBR1 174-199, looked up)
chain: GSVGTSVASAEQDELSQRLARLRDQV
notes: CHMP1B, residues 174-199 holding the single MIM; Cloned into the BamHI-NotI sites of pGEX-6P-1; also called CHMP1B MIM; CHMP1B (amino acids 174-199); source: E. coli BL21(DE3)pLysS, purified (GST sepharose, GST removed with Prescission protease)
binds: all assays above
